Laboratory results taken from PMC5801815 (Virology Journal, 2018).

B1: MAb 6D4B10 (antibody, V domains shown)
VH: EVQLQQSGPELVKPGASVKMSCKASGYTFTSYVMHWVKQKPGQGLEWIGYLNPYNDDTKYNEKFKGKATLTSDKSSSTAYMELSSLTSEDSAVYYCAYGPPYALDYWGQGTSVTVSS
VL: QIVLTQSPAIMTASLGERVTMTCTASSSVSSSYLHWYQQKPGSSPKLWIYSTSNLASGVPARFSGSGSGTSYSLTISSMEAEDAATYYCHQYHRSPYTFGGGTKLEIK
notes: also called biotinylated 6D4B10
B2: MAb 3H7A9 (antibody, V domains shown)
VH: EVQLQQSGAELVKPGASVKLSCTASGFNIKDTYMHWVKQRPEQGLEWIGRIDPANGNTQYGPKFQGKATITADTSSNTAYLQLSSLTSEDTAVYYCARGGIFYYYGSSYSYAMDYWGQGTSVTVSS
VL: DIQMTQTTSSLSASLGDRVTISCRASQDISNYLNWYQQKPDGTVTLLIYYTSRLHSGVPSRFSGSGSGTDYSLTISNLEQEDIATYFCQQGNTLPRTFGGGTKLEIK
B3: MAb 8A6F2 (antibody, V domains shown)
VH: DVQLQESGPDLVKPSQSLSLTCTVTGYSITSGYNWHWIRQFPGNKLEWMGYIHYSGGTNYNPSLKSRISITRDTSKNQFFLQLNSVTTEDTATYYCARRTGTVPFAYWGQGTLVTVSA
VL: EIVLTQSPALMAASPGEKVTITCSVSSSISSSNLHWYQQKSETSPKPWIYGTSNLASGVPVRFSGSGSGTSYSLTISSMEAEDAATYYCQQWSSYPLTFGGGTKLEIK
notes: also called biotinylated 8A6F2; 86FA2

How the values were obtained:
[1] = molecular target: SUMO*-DENV-4 NS1 fusion protein (not stated | dengue virus 4 (DENV-4), strain H421) (UniProt Q58HT7); assay: SDS-PAGE
[2] = molecular target: T1, SUMO*-DENV-4 NS1 fusion protein (Dengue virus 4 strain H241 (printed …, UniProt Q58HT7)); assay: ELISA; conditions: one partner purified
T1 construct: also called SUMO*-DENV-4 rNS1 fusion protein; SUMO*-NS1 fusion protein

[3] = molecular target: T2, recombinant DENV-4 non-structural protein 1 (unfused commercial DENV-4 rNS1) (Dengue virus 4, strain  …, UniProt P09866); assay: ELISA; conditions: one partner purified
[4] = molecular target: T2, recombinant DENV-4 non-structural …; assay: western blot; conditions: one partner purified

T1 sequence (Q58HT7 whole entry, the tested form may be a part): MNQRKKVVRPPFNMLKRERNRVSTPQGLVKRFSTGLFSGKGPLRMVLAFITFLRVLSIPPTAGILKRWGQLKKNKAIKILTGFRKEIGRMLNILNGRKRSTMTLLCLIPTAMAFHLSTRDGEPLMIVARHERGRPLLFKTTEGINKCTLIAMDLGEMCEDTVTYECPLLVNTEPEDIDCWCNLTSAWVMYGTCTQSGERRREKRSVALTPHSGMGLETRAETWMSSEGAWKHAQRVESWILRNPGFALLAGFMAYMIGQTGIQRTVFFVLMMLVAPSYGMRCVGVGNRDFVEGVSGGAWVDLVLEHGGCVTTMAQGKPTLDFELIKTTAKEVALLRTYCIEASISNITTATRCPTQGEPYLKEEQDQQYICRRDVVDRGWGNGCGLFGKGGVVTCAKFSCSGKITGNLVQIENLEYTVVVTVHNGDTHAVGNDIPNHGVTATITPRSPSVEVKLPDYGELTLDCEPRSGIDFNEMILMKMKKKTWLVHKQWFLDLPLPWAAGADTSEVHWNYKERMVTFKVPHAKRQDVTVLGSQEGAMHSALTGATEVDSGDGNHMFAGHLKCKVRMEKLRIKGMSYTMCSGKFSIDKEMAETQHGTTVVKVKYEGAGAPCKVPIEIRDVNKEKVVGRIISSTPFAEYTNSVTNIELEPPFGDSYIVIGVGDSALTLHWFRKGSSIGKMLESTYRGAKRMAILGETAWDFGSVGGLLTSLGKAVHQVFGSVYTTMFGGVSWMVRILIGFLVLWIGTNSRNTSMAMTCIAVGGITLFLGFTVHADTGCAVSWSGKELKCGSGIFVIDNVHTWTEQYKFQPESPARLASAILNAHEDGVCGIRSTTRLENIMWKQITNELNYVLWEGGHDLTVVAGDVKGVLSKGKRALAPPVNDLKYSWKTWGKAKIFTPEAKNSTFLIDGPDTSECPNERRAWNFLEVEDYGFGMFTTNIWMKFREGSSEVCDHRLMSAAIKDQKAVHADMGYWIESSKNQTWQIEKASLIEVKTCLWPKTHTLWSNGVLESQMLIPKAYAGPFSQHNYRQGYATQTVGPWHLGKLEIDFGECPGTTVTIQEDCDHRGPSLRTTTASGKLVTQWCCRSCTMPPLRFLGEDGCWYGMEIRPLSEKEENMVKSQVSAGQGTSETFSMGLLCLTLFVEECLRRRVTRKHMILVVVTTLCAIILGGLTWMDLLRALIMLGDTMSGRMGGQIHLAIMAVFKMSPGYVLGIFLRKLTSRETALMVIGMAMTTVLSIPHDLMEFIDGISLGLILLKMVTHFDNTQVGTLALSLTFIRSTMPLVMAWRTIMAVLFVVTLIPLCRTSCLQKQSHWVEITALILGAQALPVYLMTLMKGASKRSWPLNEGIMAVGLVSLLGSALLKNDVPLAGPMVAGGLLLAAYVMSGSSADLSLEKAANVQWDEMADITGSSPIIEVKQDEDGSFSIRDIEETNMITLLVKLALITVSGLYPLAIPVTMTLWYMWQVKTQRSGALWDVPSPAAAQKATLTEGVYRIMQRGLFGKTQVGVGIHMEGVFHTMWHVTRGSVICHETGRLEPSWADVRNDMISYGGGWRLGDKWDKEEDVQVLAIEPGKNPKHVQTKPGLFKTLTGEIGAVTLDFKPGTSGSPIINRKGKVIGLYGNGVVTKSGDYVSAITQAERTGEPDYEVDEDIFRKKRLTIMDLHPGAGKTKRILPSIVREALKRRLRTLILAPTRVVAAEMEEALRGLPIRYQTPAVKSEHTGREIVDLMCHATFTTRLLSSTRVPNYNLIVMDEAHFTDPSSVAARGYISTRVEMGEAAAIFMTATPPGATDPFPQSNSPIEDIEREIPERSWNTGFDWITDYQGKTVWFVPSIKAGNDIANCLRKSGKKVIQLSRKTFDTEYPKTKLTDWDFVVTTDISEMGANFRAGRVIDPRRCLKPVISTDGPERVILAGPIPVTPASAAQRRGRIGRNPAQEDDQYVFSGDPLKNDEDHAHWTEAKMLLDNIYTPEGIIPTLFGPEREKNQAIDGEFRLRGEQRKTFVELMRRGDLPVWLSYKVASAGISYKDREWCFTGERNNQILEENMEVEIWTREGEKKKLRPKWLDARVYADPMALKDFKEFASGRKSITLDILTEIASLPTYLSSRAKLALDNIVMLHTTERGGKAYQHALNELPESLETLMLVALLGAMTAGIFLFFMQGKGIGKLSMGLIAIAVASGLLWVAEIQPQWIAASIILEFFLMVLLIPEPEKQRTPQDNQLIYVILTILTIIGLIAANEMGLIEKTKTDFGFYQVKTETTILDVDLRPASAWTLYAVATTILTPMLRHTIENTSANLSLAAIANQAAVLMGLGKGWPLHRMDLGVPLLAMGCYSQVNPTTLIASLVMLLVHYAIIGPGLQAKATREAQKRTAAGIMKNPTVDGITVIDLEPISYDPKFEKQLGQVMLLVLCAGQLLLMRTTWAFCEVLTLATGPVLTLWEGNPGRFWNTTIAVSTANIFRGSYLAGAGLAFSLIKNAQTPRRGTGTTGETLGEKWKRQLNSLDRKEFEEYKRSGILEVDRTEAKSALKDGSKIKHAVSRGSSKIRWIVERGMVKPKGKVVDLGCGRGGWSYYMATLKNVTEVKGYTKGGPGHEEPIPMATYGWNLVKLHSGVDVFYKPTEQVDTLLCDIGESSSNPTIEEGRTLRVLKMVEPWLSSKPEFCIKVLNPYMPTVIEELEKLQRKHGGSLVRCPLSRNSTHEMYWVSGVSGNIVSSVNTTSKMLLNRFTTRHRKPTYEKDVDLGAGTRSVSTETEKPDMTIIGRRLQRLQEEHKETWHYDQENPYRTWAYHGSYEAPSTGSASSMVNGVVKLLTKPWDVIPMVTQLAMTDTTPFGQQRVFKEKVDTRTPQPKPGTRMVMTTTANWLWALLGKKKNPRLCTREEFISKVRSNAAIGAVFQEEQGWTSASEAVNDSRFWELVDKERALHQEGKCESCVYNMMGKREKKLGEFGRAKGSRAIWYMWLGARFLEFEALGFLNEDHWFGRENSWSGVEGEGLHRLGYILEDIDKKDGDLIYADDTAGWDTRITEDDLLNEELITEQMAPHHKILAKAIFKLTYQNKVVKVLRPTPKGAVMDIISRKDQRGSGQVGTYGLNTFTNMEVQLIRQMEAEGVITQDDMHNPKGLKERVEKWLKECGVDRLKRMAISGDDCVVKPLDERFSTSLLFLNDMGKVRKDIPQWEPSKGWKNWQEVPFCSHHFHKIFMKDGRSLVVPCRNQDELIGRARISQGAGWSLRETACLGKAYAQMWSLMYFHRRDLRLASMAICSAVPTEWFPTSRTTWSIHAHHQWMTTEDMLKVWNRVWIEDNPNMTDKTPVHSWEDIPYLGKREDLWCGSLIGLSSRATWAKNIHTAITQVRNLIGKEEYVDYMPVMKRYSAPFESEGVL

Row | Molecule | stoichiometry N [1] | binding result [2] | binding result [3] | binding result [4]
1 | SUMO*-DENV-4 NS1 fusion protein (from UniProt Q58HT7 775-1126) | 2 |  |  | 
2 | B1 |  | binds | binds | 
3 | B2 |  | binds |  | binds
4 | B3 |  | binds |  | 
